From patent US20230407373A1 (priority 2020, published 2023)
Read-outs that look alike come from different tables or passages of the source.

B1: SND1: host protein, UniProt Q7KZF4 (protein, UniProt Q7KZF4 2-910, looked up)
Staphylococcal nuclease …: ASSAQSGGSSGGPAVPTVQRGIIKMVLSGCAIIVRGQPRGGPPPERQINLSNIRAGNLARRAAATQPDAKDTPDEPWAFPAREFLRKKLIGKEVCFTIENKTPQGREYGMIYLGKDTNGENIAESLVAEGLATRREGMRANNPEQNRLSECEEQAKAAKKGMWSEGNGSHTIRDLKYTIENPRHFVDSHHQKPVNAIIEHVRDGSVVRALLLPDYYLVTVMLSGIKCPTFRREADGSETPEPFAAEAKFFTESRLLQRDVQIILESCHNQNILGTILHPNGNITELLLKEGFARCVDWSIAVYTRGAEKLRAAERFAKERRLRIWRDYVAPTANLDQKDKQFVAKVMQVLNADAIVVKLNSGDYKTIHLSSIRPPRLEGENTQDKNKKLRPLYDIPYMFEAREFLRKKLIGKKVNVTVDYIRPASPATETVPAFSERTCATVTIGGINIAEALVSKGLATVIRYRQDDDQRSSHYDELLAAEARAIKNGKGLHSKKEVPIHRVADISGDTQKAKQFLPFLQRAGRSEAVVEYVFSGSRLKLYLPKETCLITFLLAGIECPRGARNLPGLVQEGEPFSEEATLFTKELVLQREVEVEVESMDKAGNFIGWLHIDGANLSVLLVEHALSKVHFTAERSSYYKSLLSAEEAAKQKKEKVWAHYEEQPVEEVMPVLEEKERSASYKPVFVTEITDDLHFYVQDVETGTQLEKLMENMRNDIASHPPVEGSYAPRRGEFCIAKFVDGEWYRARVEKVESPAKIHVFYIDYGNREVLPSTRLGTLSPAFSTRVLPAQATEYAFAFIQVPQDDDARTDAVDSVVRDIQNTQCLLNVEHLSAGCPHVTLQFADSKGDVGLGLVKEGLVMVEVRKEKQFQKVITEYLNAQESAKSARLNLWRYGDFRADDADEFGYSR
B2: LRRC47: host protein, UniProt Q8N1G4 (protein, UniProt Q8N1G4 2-583, looked up)
Leucine-rich …: AAAAVSESWPELELAERERRRELLLTGPGLEERVRAAGGQLPPRLFTLPLLHYLEVSGCGSLRAPGPGLAQGLPQLHSLVLRRNALGPGLSPELGPLPALRVLDLSGNALEALPPGQGLGPAEPPGLPQLQSLNLSGNRLRELPADLARCAPRLQSLNLTGNCLDSFPAELFRPGALPLLSELAAADNCLRELSPDIAHLASLKTLDLSNNQLSEIPAELADCPKLKEINFRGNKLRDKRLEKMVSGCQTRSILEYLRVGGRGGGKGKGRAEGSEKEESRRKRRERKQRREGGDGEEQDVGDAGRLLLRVLHVSENPVPLTVRVSPEVRDVRPYIVGAVVRGMDLQPGNALKRFLTSQTKLHEDLCEKRTAATLATHELRAVKGPLLYCARPPQDLKIVPLGRKEAKAKELVRQLQLEAEEQRKQKKRQSVSGLHRYLHLLDGNENYPCLVDADGDVISFPPITNSEKTKVKKTTSDLFLEVTSATSLQICKDVMDALILKMAEMKKYTLENKEEGSLSDTEADAVSGQLPDPTTNPSAGKDGPSLLVVEQVRVVDLEGSLKVVYPSKADLATAPPHVTVVR
B3: PABPC4: host protein, UniProt Q13310 (protein, UniProt Q13310 1-644, looked up)
Polyadenylate-binding protein …: MNAAASSYPMASLYVGDLHSDVTEAMLYEKFSPAGPVLSIRVCRDMITRRSLGYAYVNFQQPADAERALDTMNFDVIKGKPIRIMWSQRDPSLRKSGVGNVFIKNLDKSIDNKALYDTFSAFGNILSCKVVCDENGSKGYAFVHFETQEAADKAIEKMNGMLLNDRKVFVGRFKSRKEREAELGAKAKEFTNVYIKNFGEEVDDESLKELFSQFGKTLSVKVMRDPNGKSKGFGFVSYEKHEDANKAVEEMNGKEISGKIIFVGRAQKKVERQAELKRKFEQLKQERISRYQGVNLYIKNLDDTIDDEKLRKEFSPFGSITSAKVMLEDGRSKGFGFVCFSSPEEATKAVTEMNGRIVGSKPLYVALAQRKEERKAHLTNQYMQRVAGMRALPANAILNQFQPAAGGYFVPAVPQAQGRPPYYTPNQLAQMRPNPRWQQGGRPQGFQGMPSAIRQSGPRPTLRHLAPTGSECPDRLAMDFGGAGAAQQGLTDSCQSGGVPTAVQNLAPRAAVAAAAPRAVAPYKYASSVRSPHPAIQPLQAPQPAVHVQGQEPLTASMLAAAPPQEQKQMLGERLFPLIQTMHSNLAGKITGMLLEIDNSELLHMLESPESLRSKVDEAVAVLQAHHAKKEAAQKVGAVAAATS
B4: RALY: host protein, UniProt Q9UKM9 (protein, UniProt Q9UKM9 2-306, looked up)
RNA-binding protein Raly: SLKLQASNVTNKNDPKSINSRVFIGNLNTALVKKSDVETIFSKYGRVAGCSVHKGYAFVQYSNERHARAAVLGENGRVLAGQTLDINMAGEPKPDRPKGLKRAASAIYSGYIFDYDYYRDDFYDRLFDYRGRLSPVPVPRAVPVKRPRVTVPLVRRVKTNVPVKLFARSTAVTTSSAKIKLKSSELQAIKTELTQIKSNIDALLSRLEQIAAEQKANPDGKKKGDGGGAGGGGGGGGSGGGGSGGGGGGGSSRPPAPQENTTSEAGLPQGEARTRDDGDEEGLLTHSEEELEHSQDTDADDGALQ

Key:
Format in all cases: binding
[1] = test system: SARS-CoV-2 gRNA; settings: for target (unweighted spectral count of the protein in the RNP capture): LC-MS/MS, Probe I sample (first 199 lines of Table 2)
[2] = test system: SARS-CoV-2 gRNA and sgRNAs; settings: for background (unweighted spectral count in control): no-probe control pull-down, used as background for Probe II; for target (unweighted spectral count in RNP capture): Probe II capture, LC-MS/MS LFQ
[3] = test system: gRNA of HCoV-OC43; settings: for target (spectral count) / background (spectral count): type g_36_m, 36 hpi, Probe I; for target (spectral count): HCoV-OC43-infected HCT-8 cells; for background (spectral count): uninfected-probe control; for target (spectral count, OC43 Probe I RNP capture) / background (spectral count, no-probe control): type n_48_v: 48 hours post-infection; for target (spectral count, OC43 Probe I RNP capture): infected cells, unweighted spectral count; for background (spectral count, no-probe control): no-probe control on infected cells
[4] = test system: HCoV-OC43 gRNA and sgRNA; settings: for target (unweighted spectral count, OC43 Probe II capture) / target (unweighted spectral count): tested against no-probe control; for target (unweighted spectral count, OC43 Probe II capture): FDR<10%; for target (unweighted spectral count): OC43 Probe II, infected cells; for target (unweighted spectral count, OC43 Probe II) / background (unweighted spectral count, no-probe control): type n_48_v, 48 hpi; for target (unweighted spectral count, OC43 Probe II): OC43 Probe II capture on infected cells; for background (unweighted spectral count, no-probe control): no-probe control on infected cells; for target (spectral count) / background (spectral count): type s_36_m, Probe II; for target (spectral count): HCoV-OC43-infected HCT-8 cells; for background (spectral count): uninfected-probe control

| Molecule | enrichment in SARS-CoV-2 Probe I RNP capture [1] | target (unweighted spectral count of the protein in the RNP capture) [1] | enrichment in SARS-CoV-2 Probe II RNP capture [2] | background (unweighted spectral count in control) [2] | target (spectral count) [3] | background (spectral count) [3] | target (spectral count, OC43 Probe I RNP capture) [3] | background (spectral count, no-probe control) [3] | target (unweighted spectral count, OC43 Probe II capture) ([4]; 36 hpi, type n_36_v) | target (unweighted spectral count) ([4]; 12 hpi (type n_12_v)) | target (unweighted spectral count) ([4]; 24 hpi (type n_24_v)) | target (unweighted spectral count, OC43 Probe II) [4] | background (unweighted spectral count, no-probe control) [4] | target (spectral count) ([4]; 36 hpi) | background (spectral count) ([4]; 36 hpi) | target (unweighted spectral count in RNP capture) [2] | target (unweighted spectral count, OC43 Probe II capture) ([4]; 24 hpi, type n_24_v) |
| --- | --- | --- | --- | --- | --- | --- | --- | --- | --- | --- | --- | --- | --- | --- | --- | --- | --- |
| B1 | found in the SARS-CoV-2 experiments | 16 | found in the SARS-CoV-2 experiments | 1 | 16 | 3 | 25 | 6 | 57 | 27 | 37 | 84 | 6 | 57 | 1 |  |  |
| B2 |  | 14 |  | 1 |  |  |  |  |  |  |  |  |  | 7 | 1 | 13 | 4 |
| B3 | found in the SARS-CoV-2 experiments |  | found in the SARS-CoV-2 experiments |  | 12 | 2 | 11 | 1 | 11 |  | 6 | 11 | 1 | 11 | 1 |  |  |
| B4 | found in the SARS-CoV-2 experiments | 33 | found in the SARS-CoV-2 experiments | 1 | 28 | 3 | 31 | 2 | 23 | 4 | 14 | 24 | 2 | 23 | 2 | 28 |  |
